The series deals with the molecule itself. Put plainly: mass photometry; 2 μl (50 nM) protein solution added into 18 μl protein elution buffer; movie recorded for 1 min; Refeyn 2MP mass photometer, NativeMark size marker.

Usually stoichiometry N stands for a count of units in the complex or per binding partner.

B1: RAD51 paralog complex RAD51B-RAD51C-RAD51D-XRCC2 (BCDX2) (complex, human)
chain 1: MGSKKLKRVGLSQELCDRLSRHQILTCQDFLCLSPLELMKVTGLSYRGVHELLCMVSRACAPKMQTAYGIKAQRSADFSPAFLSTTLSALDEALHGGVACGSLTEITGPPGCGKTQFCIMMSILATLPTNMGGLEGAVVYIDTESAFSAERLVEIAESRFPRYFNTEEKLLLTSSKVHLYRELTCDEVLQRIESLEEEIISKGIKLVILDSVASVVRKEFDAQLQGNLKERNKFLAREASSLKYLAEEFSIPVILTNQITTHLSGALASQADLVSPADDLSLSEGTSGSSCVIAALGNTWSHSVNTRLILQYLDSERRQILIAKSPLAPFTSFVYTIKEEGLVLQETTFCSVTQAELNWAPEILPPQPPEQLGLQMCHHTQLIF
chain 2: MRGKTFRFEMQRDLVSFPLSPAVRVKLVSAGFQTAEELLEVKPSELSKEVGISKAEALETLQIIRRECLTNKPRYAGTSESHKKCTALELLEQEHTQGFIITFCSALDDILGGGVPLMKTTEICGAPGVGKTQLCMQLAVDVQIPECFGGVAGEAVFIDTEGSFMVDRVVDLATACIQHLQLIAEKHKGEEHRKALEDFTLDNILSHIYYFRCRDYTELLAQVYLLPDFLSEHSKVRLVIVDGIAFPFRHDLDDLSLRTRLLNGLAQQMISLANNHRLAVILTNQMTTKIDRNQALLVPALGESWGHAATIRLIFHWDRKQRLATLYKSPSQKECTVLFQIKPQGFRDTVVTSACSLQTEGSLSTRKRSRDPEEEL
chain 3: MGVLRVGLCPGLTEEMIQLLRSHRIKTVVDLVSADLEEVAQKCGLSYKALVALRRVLLAQFSAFPVNGADLYEELKTSTAILSTGIGSLDKLLDAGLYTGEVTEIVGGPGSGKTQVCLCMAANVAHGLQQNVLYVDSNGGLTASRLLQLLQAKTQDEEEQAEALRRIQVVHAFDIFQMLDVLQELRGTVAQQVTGSSGTVKVVVVDSVTAVVSPLLGGQQREGLALMMQLARELKTLARDLGMAVVVTNHITRDRDSGRLKPALGRSWSFVPSTRILLDTIEGAGASGGRRMACLAKSSRQPTGFQEMVDIGTWGTSEQSATLQGDQT
chain 4: MCSAFHRAESGTELLARLEGRSSLKEIEPNLFADEDSPVHGDILEFHGPEGTGKTEMLYHLTARCILPKSEGGLEVEVLFIDTDYHFDMLRLVTILEHRLSQSSEEIIKYCLGRFFLVYCSSSTHLLLTLYSLESMFCSHPSLCLLILDSLSAFYWIDRVNGGESVNLQESTLRKCSQCLEKLVNDYRLVLFATTQTIMQKASSSSEEPSHASRRLCDVDIDYRPYLCKAWQQLVKHRMFFSKQDDSQSSNQFSLVSRCLKSNSLKKHFFIIGESGVEFC
notes: human RAD51B, codon-optimized for Sf9, from pFB-FLAG-RAD51Bco-10xHis-RAD51Cco; human RAD51C, codon-optimized for Sf9, from pFB-FLAG-RAD51Bco-10xHis-RAD51Cco; Expressed as a heterotetramer; by mass photometry the preparation was consistent with a dimer of the heterotetramer; also called BCDX2 complex; FLAG-BCDX2 complex; source: Sf9, co-infected with two baculoviruses, purified (Ni-NTA, then …)
B1: the “stoichiometry N” value was found to be 2.

The values above are taken from article PMC9371921, “Strand annealing and motor driven activities of SMARCAL1 and ZRANB3 are stimulated by RAD51 and the paralog complex” (Nucleic Acids Research, 2022).
